The chains are these.
B1: HEEH_KT_rd6_3632 (parent)
chain: DAEELIELVERALKEGREIILLGVRITSEEAGKWFIEWIRRFL

The variants in this data set derive from B1. The data set can be described thus: folding stability dG (cDNA display proteolysis); higher = more stable. As to conditions: PBS, room temperature.
In the case of DAEELIELVEIALKEGREIILLGVRITSEEAGKWFIEWIRRFL [R11I], the “folding stability dG” value was determined as 3.62 kcal/mol.

For DAEELIELVEFALKEGREIILLGVRITSEEAGKWFIEWIRRFL [R11F], the “folding stability dG” value came out at 3.16 kcal/mol.

Regarding DAEELIELVEKALKEGREIILLGVRITSEEAGKWFIEWIRRFL [R11K], the “folding stability dG” value came out at 3.65 kcal/mol.

Consider DAEELIELVEAALKEGREIILLGVRITSEEAGKWFIEWIRRFL [R11A], for which the “folding stability dG” value stood at 3.52 kcal/mol.

On to DAEELIELVETALKEGREIILLGVRITSEEAGKWFIEWIRRFL [R11T], for which the “folding stability dG” value came out at 3.62 kcal/mol.

As to DAEELIELVEEALKEGREIILLGVRITSEEAGKWFIEWIRRFL [R11E], the “folding stability dG” value is 3.38 kcal/mol.

In the case of DAEELIELVEGALKEGREIILLGVRITSEEAGKWFIEWIRRFL [R11G], the “folding stability dG” value came out at 3.19 kcal/mol.

In the case of DAEELIELVEDALKEGREIILLGVRITSEEAGKWFIEWIRRFL [R11D], the “folding stability dG” value is 3.28 kcal/mol.

As to DAEELIELVELALKEGREIILLGVRITSEEAGKWFIEWIRRFL [R11L], the “folding stability dG” value is 3.47 kcal/mol.

Take DAEELIELVEPALKEGREIILLGVRITSEEAGKWFIEWIRRFL [R11P]: the “folding stability dG” value turned out to be 3.08 kcal/mol.

Take DAEELIELVEWALKEGREIILLGVRITSEEAGKWFIEWIRRFL [R11W]: the “folding stability dG” value was found to be 3.66 kcal/mol.

As to DAEELIELVEVALKEGREIILLGVRITSEEAGKWFIEWIRRFL [R11V], the “folding stability dG” value is 3.37 kcal/mol.

On to DAEELIELVESALKEGREIILLGVRITSEEAGKWFIEWIRRFL [R11S], for which the “folding stability dG” value came to 3.32 kcal/mol.

With DAEELIELVEHALKEGREIILLGVRITSEEAGKWFIEWIRRFL [R11H], the “folding stability dG” value worked out at 3.45 kcal/mol.

Take DAEELIELVEYALKEGREIILLGVRITSEEAGKWFIEWIRRFL [R11Y]: the “folding stability dG” value was determined as 3.15 kcal/mol.

Turning to DAEELIELVEMALKEGREIILLGVRITSEEAGKWFIEWIRRFL [R11M], the “folding stability dG” value is 3.41 kcal/mol.

For the variant DAEELIELVENALKEGREIILLGVRITSEEAGKWFIEWIRRFL [R11N], the “folding stability dG” value was found to be 3.51 kcal/mol.

As to DAEELIELVEQALKEGREIILLGVRITSEEAGKWFIEWIRRFL [R11Q], the “folding stability dG” value came to 3.54 kcal/mol.

As for DAEELIELKERALKEGREIILLGVRITSEEAGKWFIEWIRRFL [V9K], the “folding stability dG” value is 2.75 kcal/mol.

Take DAEELIELNERALKEGREIILLGVRITSEEAGKWFIEWIRRFL [V9N]: the “folding stability dG” value was 2.91 kcal/mol.

Take DAEELIELAERALKEGREIILLGVRITSEEAGKWFIEWIRRFL [V9A]: the “folding stability dG” value stood at 3.19 kcal/mol.

Regarding DAEELIELSERALKEGREIILLGVRITSEEAGKWFIEWIRRFL [V9S], the “folding stability dG” value turned out to be 2.75 kcal/mol.

For the variant DAEELIELYERALKEGREIILLGVRITSEEAGKWFIEWIRRFL [V9Y], the “folding stability dG” value was 2.87 kcal/mol.

Take DAEELIELIERALKEGREIILLGVRITSEEAGKWFIEWIRRFL [V9I]: the “folding stability dG” value amounted to 3.79 kcal/mol.

Regarding DAEELIELGERALKEGREIILLGVRITSEEAGKWFIEWIRRFL [V9G], the “folding stability dG” value was 2.81 kcal/mol.

Regarding DAEELIELFERALKEGREIILLGVRITSEEAGKWFIEWIRRFL [V9F], the “folding stability dG” value was found to be 3.37 kcal/mol.

With DAEELIELEERALKEGREIILLGVRITSEEAGKWFIEWIRRFL [V9E], the “folding stability dG” value turned out to be 2.87 kcal/mol.

On to DAEELIELRERALKEGREIILLGVRITSEEAGKWFIEWIRRFL [V9R], for which the “folding stability dG” value is 2.87 kcal/mol.

As to DAEELIELHERALKEGREIILLGVRITSEEAGKWFIEWIRRFL [V9H], the “folding stability dG” value came out at 2.85 kcal/mol.

Regarding DAEELIELLERALKEGREIILLGVRITSEEAGKWFIEWIRRFL [V9L], the “folding stability dG” value amounted to 3.59 kcal/mol.

DAEELIELCERALKEGREIILLGVRITSEEAGKWFIEWIRRFL [V9C]: the “folding stability dG” value was found to be 4.04 kcal/mol.

In the case of DAEELIELDERALKEGREIILLGVRITSEEAGKWFIEWIRRFL [V9D], the “folding stability dG” value amounted to 2.93 kcal/mol.

Take DAEELIELPERALKEGREIILLGVRITSEEAGKWFIEWIRRFL [V9P]: the “folding stability dG” value came out at 2.93 kcal/mol.

Consider DAEELIELMERALKEGREIILLGVRITSEEAGKWFIEWIRRFL [V9M], for which the “folding stability dG” value was 3.45 kcal/mol.

For DAEELIELTERALKEGREIILLGVRITSEEAGKWFIEWIRRFL [V9T], the “folding stability dG” value turned out to be 3.09 kcal/mol.

In the case of DAEELIELQERALKEGREIILLGVRITSEEAGKWFIEWIRRFL [V9Q], the “folding stability dG” value is 2.7 kcal/mol.

Turning to DAEELIELWERALKEGREIILLGVRITSEEAGKWFIEWIRRFL [V9W], the “folding stability dG” value turned out to be 3.15 kcal/mol.

On to DAEELIELVPRALKEGREIILLGVRITSEEAGKWFIEWIRRFL [E10P], for which the “folding stability dG” value was determined as 2.64 kcal/mol.

Consider DAEELIELVRRALKEGREIILLGVRITSEEAGKWFIEWIRRFL [E10R], for which the “folding stability dG” value was determined as 4.03 kcal/mol.

Take DAEELIELVDRALKEGREIILLGVRITSEEAGKWFIEWIRRFL [E10D]: the “folding stability dG” value was determined as 3.41 kcal/mol.

As for DAEELIELVQRALKEGREIILLGVRITSEEAGKWFIEWIRRFL [E10Q], the “folding stability dG” value was 3.83 kcal/mol.

As to DAEELIELVYRALKEGREIILLGVRITSEEAGKWFIEWIRRFL [E10Y], the “folding stability dG” value was determined as 3.81 kcal/mol.

As for DAEELIELVNRALKEGREIILLGVRITSEEAGKWFIEWIRRFL [E10N], the “folding stability dG” value was found to be 3.82 kcal/mol.

DAEELIELVGRALKEGREIILLGVRITSEEAGKWFIEWIRRFL [E10G]: the “folding stability dG” value amounted to 3.28 kcal/mol.

On to DAEELIELVLRALKEGREIILLGVRITSEEAGKWFIEWIRRFL [E10L], for which the “folding stability dG” value was determined as 4.16 kcal/mol.

For DAEELIELVTRALKEGREIILLGVRITSEEAGKWFIEWIRRFL [E10T], the “folding stability dG” value was 3.92 kcal/mol.

On to DAEELIELVFRALKEGREIILLGVRITSEEAGKWFIEWIRRFL [E10F], for which the “folding stability dG” value was found to be 3.69 kcal/mol.

Take DAEELIELVSRALKEGREIILLGVRITSEEAGKWFIEWIRRFL [E10S]: the “folding stability dG” value amounted to 3.62 kcal/mol.

On to DAEELIELVVRALKEGREIILLGVRITSEEAGKWFIEWIRRFL [E10V], for which the “folding stability dG” value amounted to 3.99 kcal/mol.

As to DAEELIELVARALKEGREIILLGVRITSEEAGKWFIEWIRRFL [E10A], the “folding stability dG” value came out at 3.63 kcal/mol.

On to DAEELIELVCRALKEGREIILLGVRITSEEAGKWFIEWIRRFL [E10C], for which the “folding stability dG” value came to 4.65 kcal/mol.

For DAEELIELVWRALKEGREIILLGVRITSEEAGKWFIEWIRRFL [E10W], the “folding stability dG” value came to 4.21 kcal/mol.

For the variant DAEELIELVMRALKEGREIILLGVRITSEEAGKWFIEWIRRFL [E10M], the “folding stability dG” value worked out at 3.84 kcal/mol.

For DAEELIELVHRALKEGREIILLGVRITSEEAGKWFIEWIRRFL [E10H], the “folding stability dG” value was 3.78 kcal/mol.

For DAEELIELVKRALKEGREIILLGVRITSEEAGKWFIEWIRRFL [E10K], the “folding stability dG” value amounted to 3.93 kcal/mol.

On to DAEELIELVIRALKEGREIILLGVRITSEEAGKWFIEWIRRFL [E10I], for which the “folding stability dG” value was 4.3 kcal/mol.

Consider DAEELIEWVERALKEGREIILLGVRITSEEAGKWFIEWIRRFL [L8W], for which the “folding stability dG” value came out at 3.7 kcal/mol.

For the variant DAEELIERVERALKEGREIILLGVRITSEEAGKWFIEWIRRFL [L8R], the “folding stability dG” value was determined as 3.53 kcal/mol.

As to DAEELIEPVERALKEGREIILLGVRITSEEAGKWFIEWIRRFL [L8P], the “folding stability dG” value stood at 2.77 kcal/mol.

The values are drawn from the MegaScale stability set (Tsuboyama et al. 2023).
